The target of one assay is HA-Smad3 (wild type) (human, UniProt P84022 1-425). Briefly: cell-based or functional assay.
The next assay addresses HA-Smad2 (wild type) (human, UniProt Q15796 1-467). The assay is described as follows: cell-based or functional assay.

The values that follow come from PMC8534798, “Foxd4l1.1 Negatively Regulates Chordin Transcription in Neuroectoderm of Xenopus Gastrula” (Cells, 2021).

HA-Smad3 (wild type), sequence (P84022 whole entry): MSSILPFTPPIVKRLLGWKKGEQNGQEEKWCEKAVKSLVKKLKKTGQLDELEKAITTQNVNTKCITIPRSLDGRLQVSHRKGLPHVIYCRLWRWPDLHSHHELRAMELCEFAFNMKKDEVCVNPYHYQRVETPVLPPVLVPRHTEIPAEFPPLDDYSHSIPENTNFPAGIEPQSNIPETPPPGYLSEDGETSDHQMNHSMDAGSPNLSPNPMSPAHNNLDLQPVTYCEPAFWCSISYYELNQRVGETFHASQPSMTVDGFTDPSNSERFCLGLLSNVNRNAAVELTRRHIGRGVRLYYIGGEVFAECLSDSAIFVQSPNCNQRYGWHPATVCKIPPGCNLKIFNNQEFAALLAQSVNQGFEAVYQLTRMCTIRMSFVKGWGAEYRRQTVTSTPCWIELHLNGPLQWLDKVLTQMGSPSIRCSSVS
HA-Smad2 (wild type), sequence (Q15796 whole entry): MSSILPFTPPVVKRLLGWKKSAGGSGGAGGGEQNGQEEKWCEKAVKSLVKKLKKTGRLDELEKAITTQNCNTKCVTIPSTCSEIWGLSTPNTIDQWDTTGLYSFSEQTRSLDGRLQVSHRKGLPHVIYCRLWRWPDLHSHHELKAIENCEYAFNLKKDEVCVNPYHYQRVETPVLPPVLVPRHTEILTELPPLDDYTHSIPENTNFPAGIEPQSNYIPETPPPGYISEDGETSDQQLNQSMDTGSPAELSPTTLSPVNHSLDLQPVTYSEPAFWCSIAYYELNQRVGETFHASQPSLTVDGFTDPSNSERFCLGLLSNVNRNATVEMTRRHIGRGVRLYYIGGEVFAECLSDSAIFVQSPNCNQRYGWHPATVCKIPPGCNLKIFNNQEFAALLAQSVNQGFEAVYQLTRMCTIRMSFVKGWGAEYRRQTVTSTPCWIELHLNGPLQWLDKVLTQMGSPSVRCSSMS

B1: Flag-Foxd4l1.1 (natural protein, Xenopus, UniProt Q9PRJ8 1-352, looked up)
chain: MSFSQESGAHHHPQDYAGLSDEEDEIDILGEDDPCSLKSHFYLQPTHSVMGDSEMLSPSKLSCTESESDSSGESEGGTSKDSSTTPTGSKAKRTLVKPPYSYIALITMAILQSPHKKLTLSGICDFISSKFPYYKDKFPAWQNSIRHNLSLNDCFIKIPREPGNPGKGNYWTLDPASEDMFDNGSFLRRRKRFKRHQQEFFKDGLMMYNSLPYYRPYSAIQPQPVLQQTSLTCMAIPETLPMSTHLAPYPDIKRKVSYPAQGVHRGFKAQDADNHPNNSQSKCSFSIENIMRKPKEPEPNIQSFNSHWNYNHVFQRPSSCLLPAVLNLSTGPLLANTQGARQYNLIQFPGCY
With B1, the “ChIP-qPCR: occupancy of HA-Smad3 on the AREs of the chrd promoter without and with co-injected Flag-Foxd4l1.1 (fold enrichment)” value in the assay with HA-Smad3 (wild type) turned out to be 4.02 fold. Further, the “ChIP-qPCR: occupancy of HA-Smad2 on the AREs of the chrd promoter without and with co-injected Flag-Foxd4l1.1 (fold enrichment)” value with HA-Smad2 (wild type) was 7.3 fold.
